In publication PMC8550791:

Target: K48-linked pentaubiquitin (UniProt P0CG48)

MINDY1 P138A (residues 110-384) (from UniProt Q8N5J2 110-384) (domain or fragment)
Km of steady-state kinetics of cleavage of fluorescently labeled K48-linked pentaUb, against MINDY1 WT: 3 fold lower
